According to patent US10517925B2, “Composition comprising KA11 polypeptide or gene encoding the same for inhibiting angiogenesis, and use thereof” (SEOUL NATIONAL UNIVERSITY R & DB FOUNDATION, priority 2015, dated 2019):
“Also recorded” adds a separate entry of the source.

Columns and labels:
[1] = system: KAI1 expression in 10T1/2; experiment: blocking of the cytokine-induced decrease in KAI1 expression of 10T1/2 by inhibitor pre-treatment; assay type: cell-based, mouse; conditions: 10T1/2, 50 μM methylation inhibitor, then cytokine (VEGF-A, bFGF, PDGF-bb)
Procedure: Before 10T1/2 was treated with 40 ng/ml of a cytokine (VEGF-A, bFGF or PDGF-bb) selected in Example 8-1, a cytokine receptor inhibitor was treated beforehand. To this end, VEGF-A- and PDGF-bb-treated groups were treated with a tyrosine kinase inhibitor named SU11248, and a bFGF-treated group was pre-treated with a tyrosine kinase inhibitor named PD173074 for 2 hours, treated with 40 ng/ml of each cytokine (VEGF-A, bFGF, and PDGF-bb) as an angiogenic factor for 24 hours, and then harvested to confirm KAI1 expression through RT-qPCR and Western blotting, and the result is shown in FIGS. 29A and 29B.
To confirm signaling of the decrease in KAI1 expression in 10T1/2 by a cytokine, RT-qPCR and Western blotting were used to confirm whether the decrease in KAI1 expression in 10T1/2 by a cytokine was blocked by treating 10T1/2 with a signal molecule inhibitor (a Src, Pkc, TGF-β, MAPK, AKT, p53. or JAK inhibitor) before cytokine stimulation, and the result is shown in FIGS. 35 to 38.
10T1/2 was treated with 50 μM of a methylation inhibitor (5-azacytidine), and then treated with each cytokine (VEGF-A, bFGF, and PDGF-bb), which is an angiogenic factor, to confirm KAI1 expression, and the result is shown in FIG. 40.

[2] = system: KAI1 expression in 10T1/2; experiment: KAI1 expression of 10T1/2 treated with angiogenic cytokines (RT-qPCR, Western blotting, immunostaining); assay type: cell-based, mouse; conditions: for KAI1 expression: 10T1/2, 40 ng/ml cytokine, until 72 hours; for KAI1 expression after removal of the stimulant: 10T1/2 stimulated 24 hours, then fresh culture media
Procedure: That is, the change in KAI1 expression according to time (24 hrs, 48 hrs or 72 hrs) after 10T1/2 was treated with 40 ng/ml of each cytokine (VEGF-A, bFGF or PDGF-bb) was identified through RT-qPCR, Western blotting and immunostaining, and thus the results are shown in FIGS. 31A and 31B and 32. Here, each group of 10T1/2 was treated with 40 ng/ml of each cytokine (VEGF-A, bFGF, and PDGF-bb) as an angiogenic factor and cultured in RPMI 1640 HEPES supplemented with 10% (v/v) fetal bovine serum (FBS) and 1% antibiotics-antimycotics for up to 72 hours without change in a culture medium.
After FGF or PDGF stimulation was given to 10T1/2, 24 hours later, the media was changed with fresh culture media (general culture media), and then RT-qPCR and Western blotting were conducted to confirm whether there was a change in the decreased expression of KAI1. […] From the result, it can be seen that the decrease in KAI1 expression was reversible.

[3] = system: MS-1 / 10T1/2 hybrid spheroid; experiment: EC-pericyte hybrid spheroid sprouting in collagen; assay type: cell-based, mouse; conditions: culture media supplemented with KAI1 protein
Excerpt: Here, a mouse endothelial cell line (MS-1) was used as ECs and 10T1/2 was used as pericytes. In addition, KAI1 was overexpressed using an adenovirus in pericytes. In the manufacture of the spheroid, a ratio of the number of each type of cell (EC:pericyte) was 2:1, and the total cell number was fixed at 3×10^3. As culture media used to grow the spheroids, 10% FBS and 1% antibiotics-antimycotics-containing Dulbecco's modified eagle medium (DMEM) was used. In addition, effective EC sprouting was induced by a treatment of 100 ng/ml of recombinant human VEGF.
Afterwards, to verify an anticancer effect of a KAI1 protein treatment, B16 and an EC-pericyte hybrid spheroid were manufactured and embedded in collagen, and then a degree of vessel formation was observed by time. Here, a mouse endothelial cell line (MS-1) was used as ECs, and 10T1/2 was used as pericytes. In the manufacture of the spheroid, a ratio of the number of each type of cell (EC:pericyte) was 2:1, and the total cell number was fixed at 3×10^3. As culture media used to grow the spheroids, Dulbecco's modified eagle medium (DMEM) supplemented with 10% FBS and 1% antibiotics-antimycotics and a KAI1 protein was used. As a result, as shown in FIGS. 50A and 50B and 51, it can be confirmed that the sprouting of the KAI1 protein was inhibited in the spheroids. Therefore, an anticancer effect of the KAI1 protein was able to be expected.

mouse cornea = mouse cornea micropocket assay; assay type: in vivo; conditions: pellet containing both cytokine and protein, 10 days, similar to vehicle
Procedure: Based on the above-described in vitro experiment, a mouse cornea micropocket assay was performed to confirm whether angiogenesis was actually regulated by in vivo regulation of the KAI1 expression of pericytes. After a pocket formed by mixing cytokine, sucralfate and poly-hema (from which the cytokine was slowly secreted little by little) was manufactured and added to the mouse cornea, a degree of angiogenesis per experimental group was examined for 10 days. As a result, as shown in FIGS. 47A and 47B, it can be confirmed that, compared to a vehicle, angiogenesis in the mouse cornea injected with a pellet containing only a cytokine was added was much increased.

[4] = system: prostate cancer cell line (PC-3); experiment: PC-3 matrigel subcutaneous tumor mass formation in mice; assay type: in vivo, mouse; conditions: PC-3 with matrigel subcutaneously in mice, compared to vehicle
Excerpt: More specifically, a prostate cancer cell line (PC-3) was mixed with a matrigel and subcutaneously injected into mice, and then tumor mass formation was observed and compared per experimental group. […] In addition, it can be confirmed that tumor mass was smaller in a group injected with a supernatant of KAI1 O/E 10T1/2 than in a group injected with a supernatant of mock 10T1/2. After the tumor mass obtained in the above-mentioned experiment was fixed with PFA, the cross-section was formed into sections, and a degree of angiogenesis per experimental group was determined by IF. Antibodies used herein were BS-1 Lectin (EC marker, 488 fluorescence), α-SMA (Pericyte marker, 555 fluorescence), and DAPI (nucleus marker, 405 fluorescence).

retinal angiogenesis = experiment: retinal disease model mouse, injection into the orbit; assay type: in vivo; conditions: injected into the orbit of model mouse, immunofluorescence, compared with control (not treated)
Procedure: Retinal diseases such as diabetic retinopathy and central serous (chorio)retinopathy are diseases of the loss of eyesight as vessel permeability is increased by a VEGF, body fluids gather around the retina (macular edema), and pathological angiogenesis occur.
A KAI1 protein was injected into the orbit of a model mouse with such a disease, and a degree of angiogenesis inhibition was compared with a control (not treated).

## Nc1ncn([C@@H]2O[C@H](CO)[C@@H](O)[C@H]2O)c(=O)n1 [5-azacytidine]
[1]
  KAI1 gene expression: not decreased

## bFGF: typical angiogenic factor (cytokine)
[2]
  KAI1 expression: continuously decreased
  KAI1 expression after removal of the stimulant: recovered again

B1: PDGF-bb: typical angiogenic factor (cytokine) (protein, UniProt P01127 82-190, looked up)
Platelet-derived growth …: SLGSLTIAEPAMIAECKTRTEVFEISRRLIDRTNANFLVWPPCVEVQRCSGCCNNRNVQCRPTQVQLRPVQVRKIEIVRKKPIFKKATVTLEDHLACKCETVAAARPVT
modifications: homodimer
[2]
  KAI1 expression: continuously decreased
  KAI1 expression after removal of the stimulant: recovered again

B2: KAI1 protein: KAI1(CD82) polypeptide, human-derived amino acid sequence of SEQ ID NO: 1 or mouse-derived SEQ ID NO: 2 (protein)
chain: MGAGCVKVTKYFLFLFNLLFFILGAVILGFGVWILADKNSFISVLQTSSSSLQVGAYVFIGVGAITIVMGFLGCIGAVNEVRCLLGLYFVFLLLILIAQVTVGVLFYFNADKLKKEMGNTVMDIIRNYTANATSSREEAWDYVQAQVKCCGWVSHYNWTENEELMGFTKTTYPCSCEKIKEEDNQLIVKKGFCEADNSTVSENNPEDWPVNTEGCMEKAQAWLQENFGILLGVCAGVAVIELLGLFLSICLCRYIHSEDYSKVPKY
[3]
  sprouting of B16 and EC-pericyte hybrid spheroids: inhibited
Mouse cornea
  angiogenesis in the mouse cornea: no angiogenesis
[4]
  tumor mass: smaller
Retinal angiogenesis
  angiogenesis in the presence of VEGF: angiogenesis was inhibited; also recorded: inhibition of angiogenesis
